From patent US20150017095A1 (AbbVie / Abbott, published 2015)
Each block holds one binder with its values, some of them ahead of it.

What was measured:
Recombinant Human IL-17 [1] = biological target: T1, Recombinant Human IL-17 (human, UniProt Q16552 20-155, limits assumed); test: cell-based or functional assay
Recombinant Human IL-17 [2] = biological target: T1, Recombinant Human IL-17; test: direct bind ELISA, antigen coated on plate (C-terminal VD)
Method: (§1) Enzyme Linked Immunosorbent Assays to screen for antibodies that bind a desired target antigen were performed as follows. High bind ELISA plates (Corning Costar #3369, Acton, Mass.) were coated with 100 μL/well of 10 μg/ml of desired target antigen (R&D Systems, Minneapolis, Minn.) or desired target antigen extra-cellular domain/FC fusion protein (R&D Systems, Minneapolis, Minn.) or monoclonal mouse anti-polyHistidine antibody (R&D Systems # MAB050, Minneapolis, Minn.) in phosphate buffered saline (10×PBS, Abbott Bioresearch Center, Media Prep# MPS-073, Worcester, Mass.) overnight at 4° C. Plates were washed four times with PBS containing 0.02% Tween 20. Plates were blocked by the addition of 300 μL/well blocking solution (non-fat dry milk powder, various retail suppliers, diluted to 2% in PBS) for ½ hour at room temperature. Plates were washed four times after blocking with PBS containing 0.02% Tween 20.
(§2) Plates were washed 4 times with PBS containing 0.02% Tween 20.
(§3) One hundred microliters of enhanced TMB solution (Neogen Corp. #308177, K Blue, Lexington, Ky.) was added to each well and incubated for 10 minutes at room temperature. The reaction was stopped by the addition of 50 μL 1N sulphuric acid.

Recombinant Human IL-17 [3] = biological target: T1, Recombinant Human IL-17; test: BIACORE SPR, DVD-Ig captured, antigen in flow (C-terminal VD)
Method: (§4) The BIACORE assay (Biacore, Inc, Piscataway, N.J.) determines the affinity of antibodies or DVD-Ig with kinetic measurements of on-rate and off-rate constants. […] All chemicals are obtained from Biacore® AB (Uppsala, Sweden) or otherwise from a different source as described in the text. For example, approximately 5000 RU of goat anti-mouse IgG, (Fcγ), fragment specific polyclonal antibody (Pierce Biotechnology Inc, Rockford, Ill.) diluted in 10 mM sodium acetate (pH 4.5) is directly immobilized across a CM5 research grade biosensor chip using a standard amine coupling kit according to manufacturer's instructions and procedures at 25 μg/ml. Unreacted moieties on the biosensor surface are blocked with ethanolamine. Modified carboxymethyl dextran surface in flowcell 2 and 4 is used as a reaction surface. Unmodified carboxymethyl dextran without goat anti-mouse IgG in flow cell 1 and 3 is used as the reference surface. For kinetic analysis, rate equations derived from the 1:1 Langmuir binding model are fitted simultaneously to association and dissociation phases of all eight injections (using global fit analysis) with the use of Biaevaluation 4.0.1 software. Purified antibodies or DVD-Ig are diluted in HEPES-buffered saline for capture across goat anti-mouse IgG specific reaction surfaces. Antibodies or DVD-Ig to be captured as a ligand (25 μg/m) are injected over reaction matrices at a flow rate of 5 μl/min. The association and dissociation rate constants, kₒₙ (M⁻¹s⁻¹) and koff (s⁻¹) are determined under a continuous flow rate of 25 μl/min. Rate constants are derived by making kinetic binding measurements at different antigen concentrations ranging from 10-200 nM. The equilibrium dissociation constant (M) of the reaction between antibodies or DVD-Igs and the target antigen is then calculated from the kinetic rate constants by the following formula: KD=koff/kₒₙ. Binding is recorded as a function of time and kinetic rate constants are calculated.

[4] = biological target: T2, Recombinant Human IL-6 sR (human, UniProt P08887 20-358); test: direct bind ELISA, antigen coated on plate (N-terminal VD)
T2 construct: domain: IL-6 sR; Bought reagent; also called IL-6R
T2 sequence (looked up): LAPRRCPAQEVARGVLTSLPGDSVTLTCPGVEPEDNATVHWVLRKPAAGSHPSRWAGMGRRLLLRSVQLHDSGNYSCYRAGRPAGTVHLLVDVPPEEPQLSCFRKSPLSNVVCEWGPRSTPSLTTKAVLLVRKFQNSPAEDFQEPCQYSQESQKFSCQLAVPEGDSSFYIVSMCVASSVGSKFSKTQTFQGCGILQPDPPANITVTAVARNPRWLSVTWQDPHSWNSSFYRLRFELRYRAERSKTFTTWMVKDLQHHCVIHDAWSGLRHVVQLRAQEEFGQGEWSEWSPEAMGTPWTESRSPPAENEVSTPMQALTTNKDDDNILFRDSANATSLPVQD
Method: as §1, §2, §3

[5] = biological target: T2, Recombinant Human IL-6 sR; test: BIACORE SPR, DVD-Ig captured, antigen in flow (N-terminal VD)
Method: as §4

Recombinant Human IL-17 [6] = biological target: T1, Recombinant Human IL-17; test: direct bind ELISA, antigen coated on plate (N-terminal VD)
Method: as §1, §2, §3

Recombinant Human IL-17 [7] = biological target: T1, Recombinant Human IL-17; test: BIACORE SPR, DVD-Ig captured, antigen in flow (N-terminal VD)
Method: as §4

Recombinant Human IL-1β [8] = biological target: T3, Recombinant Human IL-1β (human, UniProt P01584 117-269); test: cell-based or functional assay
Recombinant Human IL-1β [9] = biological target: T3, Recombinant Human IL-1β; test: direct bind ELISA, antigen coated on plate (C-terminal VD)
Method: as §1, §2, §3

T1 sequence (Q16552 20-155 limits assumed): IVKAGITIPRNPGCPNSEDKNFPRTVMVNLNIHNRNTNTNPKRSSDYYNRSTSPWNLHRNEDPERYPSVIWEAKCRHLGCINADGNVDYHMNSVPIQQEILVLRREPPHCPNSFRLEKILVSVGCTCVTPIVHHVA

B2: DVD152 (IL-6R / PGE2 DVD-Ig) (bispecific antibody)
VH: EVQLQESGPGLVRPSQTLSLTCTVSGYSITSDHAWSWVRQPPGRGLEWIGYISYSGITTYNPSLKSRVTMLRDTSKNQFSLRLSSVTAADTAVYYCARSLARTTAMDYWGQGSLVTVSSASTKGPEVQLVQSGAEVKKPGASVKVSCKASGYTFTKYWLGWVRQAPGQGLEWMGDIYPGYDYTHYNEKFKDRVTLTTDTSTSTAYMELRSLRSDDTAVYYCARSDGSSTYWGQGTLVTVSS
VL: DIQMTQSPSSLSASVGDRVTITCRASQDISSYLNWYQQKPGKAPKLLIYYTSRLHSGVPSRFSGSGSGTDFTFTISSLQPEDIATYYCQQGNTLPYTFGQGTKVEIKRTVAAPDVLMTQTPLSLPVTPGEPASISCTSSQNIVHSNGNTYLEWYLQKPGQSPQLLIYKVSNRFSGVPDRFSGSGSGTDFTLKISRVEAEDVGVYYCFQVSHVPYTFGGGTKVEIKR
notes: Outer domain is AB054 (IL-6R), inner domain is AB048 (PGE2); also called VD152H; VD152L
EC50 [4]: 1.62 nM
Kd [5]: 0.275 nM
koff [5]: 0.000115 s⁻¹
kon [5]: 420000 M⁻¹ s⁻¹

B3: DVD156 (IL-17A / PGE2 DVD-Ig) (bispecific antibody)
VH: EVQLVESGGGLVQPGGSLRLSCAASGFTFSNYWMNWVRQAPGKGLEWVAAINQDGSEKYYVGSVKGRFTISRDNAKNSLYLQMNSLRVEDTAVYYCVRDYYDILTDYYIHYWYFDLWGRGTLVTVSSASTKGPEVQLVQSGAEVKKPGASVKVSCKASGYTFTKYWLGWVRQAPGQGLEWMGDIYPGYDYTHYNEKFKDRVTLTTDTSTSTAYMELRSLRSDDTAVYYCARSDGSSTYWGQGTLVTVSS
VL: not shown
notes: Outer domain is AB029 (IL-17A), inner domain is AB048 (PGE2); also called VD156H; VD156L
EC50 (Recombinant Human IL-17 [6]): 0.62 nM
Kd (Recombinant Human IL-17 [7]): ≤ 0.0115 nM
koff (Recombinant Human IL-17 [7]): < 1e-06 s⁻¹
kon (Recombinant Human IL-17 [7]): 86800 M⁻¹ s⁻¹
N-terminal VD IL-17 Neutralization Assay EC50 nM (IL-6 secretion by HS27 cells) (Recombinant Human IL-17 [1]): 0.2 nM

Continued, values first:

C-terminal VD IL-17 Neutralization Assay EC50 nM (IL-6 secretion by HS27 cells) (Recombinant Human IL-17 [1]): 5.7e-05 nM
EC50 (Recombinant Human IL-17 [2]): 248 nM
Kd (Recombinant Human IL-17 [3]): 3.37 nM
koff (Recombinant Human IL-17 [3]): 0.000125 s⁻¹
kon (Recombinant Human IL-17 [3]): 37000 M⁻¹ s⁻¹
B1: DVD155 (PGE2 / IL-17A DVD-Ig) (bispecific antibody)
VH: EVQLVQSGAEVKKPGASVKVSCKASGYTFTKYWLGWVRQAPGQGLEWMGDIYPGYDYTHYNEKFKDRVTLTTDTSTSTAYMELRSLRSDDTAVYYCARSDGSSTYWGQGTLVTVSSASTKGPEVQLVESGGGLVQPGGSLRLSCAASGFTFSNYWMNWVRQAPGKGLEWVAAINQDGSEKYYVGSVKGRFTISRDNAKNSLYLQMNSLRVEDTAVYYCVRDYYDILTDYYIHYWYFDLWGRGTLVTVSS
VL: not shown
notes: Outer domain is AB048 (PGE2), inner domain is AB029 (IL-17A); also called VD155H; VD155L

C-terminal VD IL-1β Neutralization Assay EC50 nM (IL-8 release by MRC5 cells) (Recombinant Human IL-1β [8]): 3.22 nM
EC50 (Recombinant Human IL-1β [9]): 2480 nM
B4: DVD157 (PGE2 / IL-1b DVD-Ig) (bispecific antibody)
VH: EVQLVQSGAEVKKPGASVKVSCKASGYTFTKYWLGWVRQAPGQGLEWMGDIYPGYDYTHYNEKFKDRVTLTTDTSTSTAYMELRSLRSDDTAVYYCARSDGSSTYWGQGTLVTVSSASTKGPQVQLVESGGGVVQPGRSLRLSCAASGFTFSVYGMNWVRQAPGKGLEWVAIIWYDGDNQYYADSVKGRFTISRDNSKNTLYLQMNGLRAEDTAVYYCARDLRTGPFDYWGQGTLVTVSS
VL: DVLMTQTPLSLPVTPGEPASISCTSSQNIVHSNGNTYLEWYLQKPGQSPQLLIYKVSNRFSGVPDRFSGSGSGTDFTLKISRVEAEDVGVYYCFQVSHVPYTFGGGTKVEIKRTVAAPEIVLTQSPDFQSVTPKEKVTITCRASQSIGSSLHWYQQKPDQSPKLLIKYASQSFSGVPSRFSGSGSGTDFTLTINSLEAEDAAAYYCHQSSSLPFTFGPGTKVDIKR
notes: Outer domain is AB048 (PGE2), inner domain is AB032 (IL-1b); also called VD157H; VD157L
